Several values for one entry are separate records, joined by “and”; a condition that tells them apart may be missing. Equal values may be shown once.
How the values were obtained:
[1] = target: T1, human prostate specific membrane antigen (PSMA), full-length, on cells (human, UniProt Q04609 1-750); assay: FMAT direct cell binding, CHO human PSMA cells
T1 construct: also called huPSMA; human PSMA

[2] = target: T2, recombinant human PSMA (R&D, cat. no. 4234-ZN) (human, UniProt Q04609 44-750); assay: Octet RED384 BLI, PSMA on sensor, Table 21 b
T2 construct: Bought protein; also called rhPSMA; Recombinant PMSA

[3] = target: T2, recombinant human PSMA (R&D, cat. no. …); assay: Octet RED384 BLI, PSMA on sensor, Table 21 c
[4] = target: T1, human prostate specific membrane …; assay: FMAT cell binding, huPSMA CHO 1A10 cells, after 1 day in human serum at 37 C
[5] = target: T1, human prostate specific membrane …; assay: FMAT cell binding, huPSMA CHO 1A10 cells, after 7 days in human serum at 37 C
[6] = target: T3, cynomolgus PSMA, full-length, on CHO cells (cynomolgus, UniProt A0A2K5VNZ0 1-750); assay: FMAT direct cell binding, CHO cyno PSMA cells
T3 construct: whole, on cells; also called cynoPSMA; cyno PSMA

[7] = target: T1, human prostate specific membrane …; assay: FMAT cell binding, huPSMA CHO 1A10 cells, after 0 days in human serum at 37 C
[8] = target: T2, recombinant human PSMA (R&D, cat. no. …); assay: Octet RED384 BLI, PSMA on sensor, VH series from 0.375 ug/ml
[9] = target: T1, human prostate specific membrane …; assay: cell-based or functional assay
[10] = target: T1, human prostate specific membrane …; assay: FMAT direct cell binding, LNCap cells
[11] = target: T1, human prostate specific membrane …; assay: cell-based or functional assay; remark: listed apart in the source
[12] = target: T3, cynomolgus PSMA, full-length, on CHO …; assay: cell-based or functional assay
[13] = target: T2, recombinant human PSMA (R&D, cat. no. …); assay: Octet RED384 BLI, PSMA on sensor, Table 21 c; Table 21 part c), not part b) (0.85 nM for clone 1.8)
[14] = target: T1, human prostate specific membrane …; assay: FMAT cell binding, huPSMA CHO 1A10 cells, after 4 days in human serum at 37 C
[15] = target: T1, human prostate specific membrane …; assay: FMAT direct cell binding, DU145 PSMA cells
[16] = target: T3, cynomolgus PSMA, full-length, on CHO …; assay: FMAT Mirrorball direct cell binding, purified His-tagged VH titrated on CHO cells expressing cynomolgus PSMA, FL2 median binding signal [panel cynoPSMA-CHO binding]
[17] = target: T1, human prostate specific membrane …; assay: FMAT cell binding, huPSMA CHO 1A10 cells, after 1 day in human serum at 37 C; remark: listed apart in the source
[18] = target: T3, cynomolgus PSMA, full-length, on CHO …; assay: FMAT direct binding on CHO cells expressing cynomolgus PSMA, VH kept 8 days at 40 °C, FL2 median mean fluorescence
[19] = target: T3, cynomolgus PSMA, full-length, on CHO …; assay: FMAT direct binding on CHO cells expressing cynomolgus PSMA, VH not heated (4 °C, day 0), FL2 median mean fluorescence
[20] = target: T2, recombinant human PSMA (R&D, cat. no. …); assay: Octet RED384 BLI, PSMA on sensor, VH series from 0.375 ug/ml; remark: listed apart in the source
[21] = target: T2, recombinant human PSMA (R&D, cat. no. …); assay: Octet RED384 BLI, PSMA amine-coupled to sensor, 1:1 model
[22] = target: T1, human prostate specific membrane …; assay: FMAT cell binding, huPSMA CHO 1A10 cells, after 0 days in human serum at 37 C; remark: listed apart in the source
[23] = target: T1, human prostate specific membrane …; assay: cell-based or functional assay; remark: listed apart in the source
[24] = target: T3, cynomolgus PSMA, full-length, on CHO …; assay: cell-based or functional assay; remark: listed apart in the source
[25] = target: T1, human prostate specific membrane …; assay: FMAT cell binding, huPSMA CHO 1A10 cells, after 7 days in human serum at 37 C; remark: listed apart in the source
[26] = target: T1, human prostate specific membrane …; assay: FMAT cell binding, huPSMA CHO 1A10 cells, after 4 days in human serum at 37 C; remark: listed apart in the source
[27] = target: T2, recombinant human PSMA (R&D, cat. no. …); assay: HTRF binding assay: His-Myc tagged VH, 3 nM biotinylated PSMA, streptavidin cryptate and anti-Myc Alexa Fluor 647; VH kept 0-7 days at 37 °C in cynomolgus monkey serum; Delta F% binding signal

T2 sequence (Q04609 44-750 limits assumed): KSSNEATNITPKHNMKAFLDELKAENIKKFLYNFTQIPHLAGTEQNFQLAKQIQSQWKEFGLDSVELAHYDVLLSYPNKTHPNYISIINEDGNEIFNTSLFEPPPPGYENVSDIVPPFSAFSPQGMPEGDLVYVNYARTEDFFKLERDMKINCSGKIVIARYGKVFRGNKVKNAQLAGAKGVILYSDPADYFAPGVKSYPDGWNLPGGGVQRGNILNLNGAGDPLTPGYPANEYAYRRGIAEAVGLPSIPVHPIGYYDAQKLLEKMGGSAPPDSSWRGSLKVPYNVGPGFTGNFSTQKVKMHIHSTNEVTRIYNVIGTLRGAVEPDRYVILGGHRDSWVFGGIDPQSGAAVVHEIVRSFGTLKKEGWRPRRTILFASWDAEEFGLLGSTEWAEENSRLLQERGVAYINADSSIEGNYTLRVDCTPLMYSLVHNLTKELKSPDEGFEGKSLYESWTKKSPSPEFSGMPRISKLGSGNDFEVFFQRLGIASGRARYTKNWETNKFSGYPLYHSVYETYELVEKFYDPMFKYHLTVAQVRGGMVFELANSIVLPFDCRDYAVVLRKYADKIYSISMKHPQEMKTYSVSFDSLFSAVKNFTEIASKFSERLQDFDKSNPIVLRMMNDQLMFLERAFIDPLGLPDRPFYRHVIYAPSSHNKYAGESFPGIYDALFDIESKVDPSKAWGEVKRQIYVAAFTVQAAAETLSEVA
T1 sequence (Q04609 whole entry): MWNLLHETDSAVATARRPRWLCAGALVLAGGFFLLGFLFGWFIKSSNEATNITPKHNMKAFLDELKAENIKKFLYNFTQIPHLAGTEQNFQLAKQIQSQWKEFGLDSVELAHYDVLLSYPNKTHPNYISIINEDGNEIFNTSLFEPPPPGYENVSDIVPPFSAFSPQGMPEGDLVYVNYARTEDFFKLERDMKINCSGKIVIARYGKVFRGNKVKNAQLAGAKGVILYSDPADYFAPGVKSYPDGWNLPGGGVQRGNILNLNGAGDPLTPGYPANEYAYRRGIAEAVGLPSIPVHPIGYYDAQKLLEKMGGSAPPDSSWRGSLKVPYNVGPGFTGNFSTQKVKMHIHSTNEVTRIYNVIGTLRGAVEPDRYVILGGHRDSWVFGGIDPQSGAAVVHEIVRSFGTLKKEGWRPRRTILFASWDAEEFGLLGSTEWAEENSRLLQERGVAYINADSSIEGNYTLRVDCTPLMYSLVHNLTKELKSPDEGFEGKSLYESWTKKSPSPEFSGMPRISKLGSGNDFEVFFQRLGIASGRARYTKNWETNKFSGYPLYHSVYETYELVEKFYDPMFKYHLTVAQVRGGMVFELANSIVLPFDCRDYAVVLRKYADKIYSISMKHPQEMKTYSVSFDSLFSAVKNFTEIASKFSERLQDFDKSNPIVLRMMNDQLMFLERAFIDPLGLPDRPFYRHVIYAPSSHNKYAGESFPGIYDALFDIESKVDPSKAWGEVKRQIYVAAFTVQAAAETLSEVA

B1: single VH domain antibody 1.8 (VHH)
VHH: EVQLLESGGGLVQPGGSLRLSCAASGFSFSSYAMSWVRQAPGKGLEWVSSIGENDGTTDYADSVKGRFTISRDNSKNTLYLQMNSLRVEDTAVYYCVKDGVHWGQGTLVTVSS
notes: Human single VH domain antibody (Humabody)
EC50 [1]: 0.103 nM
Kd [2]: 0.85 nM
koff [2]: 0.00068 s⁻¹
koff [3]: 0.00104 s⁻¹
EC50 [4]: 0.486 nM and 0.22 nM
EC50 [5]: 0.542 nM and 0.27 nM
EC50 [6]: 0.31 nM
EC50 [7]: 0.409 nM and 0.17 nM
Kd [8]: 1.95 nM
koff [8]: 0.00104 s⁻¹
pHrodo Green internalization assay, human PSMA Average EC50 (M) [9]: 5e-10 M and 1.2e-09 M
EC50 [10]: 0.147 nM
His-ZAP cell killing, human PSMA Average EC50 [11]: 0.026 nM and 0.04 nM
His-ZAP cell killing, cyno PSMA EC50 [12]: 1.4 nM
Kd [13]: 1.95 nM
EC50 [14]: 0.496 nM and 0.25 nM
EC50 [15]: 0.0945 nM

B2: single VH domain antibody 2.1 (VHH)
VHH: EVQLVESGGGVVQPGRSLRLSCAASGFSFSGYGMHWVRQAPGKGLEWVAYISYDGSNKYYADSVKGRFTISRDNSKNTLYLQMNSLRAEDTAVYYCAKDPAWGLRLGESSSYDFDIWGQGTMVTVSS
notes: Human single VH domain antibody (Humabody); tested with a C-terminal His tag; 71-95; also called VH 2.1; VH2.1
EC50 [1]: 0.11 nM
EC50 (read off the curve) [16]: ~0.6 nM
EC50 [17]: 0.254 nM
EC50 (read off the curve) [18]: ~2 nM
EC50 (read off the curve) [19]: ~2 nM
EC50 [6]: 0.367 nM
pHrodo Green internalization assay, human PSMA Average EC50 (M) [9]: 8e-10 M
EC50 [10]: 0.0607 nM
His-ZAP cell killing, human PSMA Average EC50 [11]: 0.014 nM
His-ZAP cell killing, cyno PSMA EC50 [12]: 0.052 nM
Kd [20]: 0.32 nM
koff [20]: 0.000228 s⁻¹
Kd [21]: 1.64 nM
koff [21]: 0.000456 s⁻¹
EC50 [22]: 0.249 nM
IC50 (read off the curve): His-ZAP saporin cell killing, human-PSMA CHO, % Control (Cell Titer-Glo) [23]: ~0.04 nM
IC50 (read off the curve): His-ZAP saporin cell killing, cyno-PSMA CHO, % Control (Cell Titer-Glo) [24]: ~0.1 nM
EC50 [25]: 0.301 nM
EC50 [26]: 0.26 nM
EC50 [15]: 0.23 nM
EC50 (read off the curve) [27]: ~1 nM

— patent US20200131274A1 (CRESCENDO BIOLOGICS, published 2020)
